From patent publication US20150299268A1

Target: panel of 118 tier 2,3 viruses
Assay: cell-based or functional assay

B1: N60-B1.1 (antibody, V domains shown)
VH: QLQLQESGPGLVKPSGTLSLTCSVSGGSMNGRNIYWAWIRQTPGKGLEWIGSVDVSDEDAGRTFYKWPIKSRASISADTSKNQFSLKLSSVTVADTGVYYCARETLYYVGNGYYYPLDVFYYNYYMDVWGKGTTVSVSSASTKG
VL: not shown
B1 gave a % of neutralized viruses of 40.2%, a Median IC50 (ug/ml), neutralization of 0.37 µg/mL and an average IC50, neutralization (TZM-bl assay) of 0.44 µg/mL.
